Source: patent US20220040297A1 (Chugai, published 2022)
Numbering of substitutions follows the chain as printed.

B1: GLS3000 H27dF (antibody, name in Kabat numbering, V domains shown)
VH: QVQLVESGGGVVQPGRSLRLSCAASGFTFSNAWMHWVRQAPGKGLEWVAQIKAKSNNYATYYAESVKGRFTISRDDSKNSLYLQMNSLKTEDTAVYYCRYVHYGAYYGVDAWGQGTTVTVSS
VL: DIVMTQSPLSLPVTPGEPASISCRSSQSLVFSNRNTYLHWYQQKPGQAPRLLIYKVSNRFSGVPDRFSGSGSGTDFTLKISRVEAEDVGVYYCGQGTQVPYTFGQGTKLEIK
notes: one-arm format as m2
B2: GLS3000 H27dN (antibody, name in Kabat numbering, V domains shown)
VH: B1 VH
VL: B1 VL with F31N
notes: one-arm format as m2
B3: GLS3000 H34R (antibody, name in Kabat numbering, V domains shown)
VH: B1 VH
VL: B1 VL with F31H, H39R
notes: one-arm format as m2
B4: GLS3000 H34V (antibody, name in Kabat numbering, V domains shown)
VH: B1 VH
VL: B1 VL with F31H, H39V
notes: one-arm format as m2
B5: GLS3000 H34N (antibody, name in Kabat numbering, V domains shown)
VH: B1 VH
VL: B1 VL with F31H, H39N
notes: one-arm format as m2
B6: GLS3000 H27dI (antibody, name in Kabat numbering, V domains shown)
VH: B1 VH
VL: B1 VL with F31I
notes: one-arm format as m2
B7: GLS3000 H34I (antibody, name in Kabat numbering, V domains shown)
VH: B1 VH
VL: B1 VL with F31H, H39I
notes: one-arm format as m2
B8: GLS3000 H27dQ (antibody, name in Kabat numbering, V domains shown)
VH: B1 VH
VL: B1 VL with F31Q
notes: one-arm format as m2
B9: GLS3000 H34G (antibody, name in Kabat numbering, V domains shown)
VH: B1 VH
VL: B1 VL with F31H, H39G
notes: one-arm format as m2
B10: GLS3000 H34Q (antibody, name in Kabat numbering, V domains shown)
VH: B1 VH
VL: B1 VL with F31H, H39Q
notes: one-arm format as m2
B11: GLS3000 H27dR (antibody, name in Kabat numbering, V domains shown)
VH: B1 VH
VL: B1 VL with F31R
notes: one-arm format as m2
B12: GLS3000 H27dW (antibody, name in Kabat numbering, V domains shown)
VH: B1 VH
VL: B1 VL with F31W
notes: one-arm format as m2
B13: GLS3000 H27dK (antibody, name in Kabat numbering, V domains shown)
VH: B1 VH
VL: B1 VL with F31K
notes: one-arm format as m2
B14: GLS3000 H27dL (antibody, name in Kabat numbering, V domains shown)
VH: B1 VH
VL: B1 VL with F31L
notes: one-arm format as m2
B15: GLS3000 H27dG (antibody, name in Kabat numbering, V domains shown)
VH: B1 VH
VL: B1 VL with F31G
notes: one-arm format as m2
B16: GLS3000 H34E (antibody, name in Kabat numbering, V domains shown)
VH: B1 VH
VL: B1 VL with F31H, H39E
notes: one-arm format as m2
B17: GLS3000 H34A (antibody, name in Kabat numbering, V domains shown)
VH: B1 VH
VL: B1 VL with F31H, H39A
notes: one-arm format as m2
B18: GLS3000 H34F (antibody, name in Kabat numbering, V domains shown)
VH: B1 VH
VL: B1 VL with F31H, H39F
notes: one-arm format as m2
B19: GLS3000 H34S (antibody, name in Kabat numbering, V domains shown)
VH: B1 VH
VL: B1 VL with F31H, H39S
notes: one-arm format as m2
B20: GLS3000 H34T (antibody, name in Kabat numbering, V domains shown)
VH: B1 VH
VL: B1 VL with F31H, H39T
notes: one-arm format as m2
B21: GLS3000 H27dS (antibody, name in Kabat numbering, V domains shown)
VH: B1 VH
VL: B1 VL with F31S
notes: one-arm format as m2
B22: GLS3000 H27dV (antibody, name in Kabat numbering, V domains shown)
VH: B1 VH
VL: B1 VL with F31V
notes: one-arm format as m2
B23: GLS3000 H27dY (antibody, name in Kabat numbering, V domains shown)
VH: B1 VH
VL: B1 VL with F31Y
notes: one-arm format as m2
B24: GLS3000 H34M (antibody, name in Kabat numbering, V domains shown)
VH: B1 VH
VL: B1 VL with F31H, H39M
notes: one-arm format as m2
B25: GLS3000 H27dT (antibody, name in Kabat numbering, V domains shown)
VH: B1 VH
VL: B1 VL with F31T
notes: one-arm format as m2
B26: GLS3000 H27dP (antibody, name in Kabat numbering, V domains shown)
VH: B1 VH
VL: B1 VL with F31P
notes: one-arm format as m2
B27: GLS3000 H34L (antibody, name in Kabat numbering, V domains shown)
VH: B1 VH
VL: B1 VL with F31H, H39L
notes: one-arm format as m2
B28: GLS3000 H34W (antibody, name in Kabat numbering, V domains shown)
VH: B1 VH
VL: B1 VL with F31H, H39W
notes: one-arm format as m2
B29: GLS3000 H34Y (antibody, name in Kabat numbering, V domains shown)
VH: B1 VH
VL: B1 VL with F31H, H39Y
notes: one-arm format as m2
B30: GLS3000 H34P (antibody, name in Kabat numbering, V domains shown)
VH: B1 VH
VL: B1 VL with F31H, H39P
notes: one-arm format as m2
B31: GLS3000 H34D (antibody, name in Kabat numbering, V domains shown)
VH: B1 VH
VL: B1 VL with F31H, H39D
notes: one-arm format as m2
B32: GLS3000 H34K (antibody, name in Kabat numbering, V domains shown)
VH: B1 VH
VL: B1 VL with F31H, H39K
notes: one-arm format as m2

These binders were tested against CD3ε homodimer protein (human, UniProt P07766 23-126, limits assumed) (assay: SPR, immobilized CD3ε homodimer;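 further: biacore T200 surface plasmon resonance at 25 °C, antibody variants flowed as analytes over amine-coupled CD3ε homodimer on a CM4 chip, variant binding amount divided by that of GLS3000 antibody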).
Chain of CD3ε homodimer protein (P07766 23-126 limits assumed): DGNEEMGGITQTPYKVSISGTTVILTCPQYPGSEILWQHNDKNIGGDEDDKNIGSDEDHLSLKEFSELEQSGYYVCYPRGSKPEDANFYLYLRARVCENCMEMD
Experimental: Each one-amino acid altered form constructed, expressed, and purified in the paragraph (6-2) was evaluated using Biacore T200 (GE Healthcare Japan Corp.). An appropriate amount of CD3ε homodimer protein was immobilized onto Sensor chip CM4 (GE Healthcare Japan Corp.) by the amine coupling method. Then, the antibody having an appropriate concentration was injected thereto as an analyte and allowed to interact with the CD3ε homodimer protein on the sensor chip. Then, the sensor chip was regenerated by the injection of 10 mmol/L glycine-HCl (pH 1.5). The assay was conducted at 25° C., and HBS-EP+ (GE Healthcare Japan Corp.) was used as a running buffer. […] Each parameter was calculated using Biacore T200 Evaluation Software (GE Healthcare Japan Corp.).
Specifically, when the amount of the GLS3000-containing antibody bound was defined as X and the amount of the L chain one-amino acid altered form bound was defined as Y, a value of Z (ratio of amounts bound)=Y/X was used.

Going from B1 to B2, the “ratio of amounts bound (vs GLS3000)” value falls from 0.63 to 0.3.

First: B3
Second: B4
The “ratio of amounts bound (vs GLS3000)” value of the first is lower: 0.2 for the first, 0.85 for the second.

Going from B5 to B6, the “ratio of amounts bound (vs GLS3000)” value falls from 0.65 to 0.26.

First: B7
Second: B8
The “ratio of amounts bound (vs GLS3000)” value of the first is higher: 0.65 for the first, 0.25 for the second.

Compared with B9, B10 is lower in “ratio of amounts bound (vs GLS3000)” value: 1.02 for the first, 0.25 for the second.

Going from B11 to B12, the “ratio of amounts bound (vs GLS3000)” value rises from 0.31 to 0.39.

Compared with B13, B14 is higher in “ratio of amounts bound (vs GLS3000)” value: 0.29 for the first, 0.3 for the second.

First: B15
Second: B16
The “ratio of amounts bound (vs GLS3000)” value of the first is higher: 0.3 for the first, 0.23 for the second.

Going from B17 to B18, the “ratio of amounts bound (vs GLS3000)” value falls from 1.06 to 0.27.

Going from B19 to B20, the “ratio of amounts bound (vs GLS3000)” value rises from 0.78 to 0.89.

Compared with B21, B22 is lower in “ratio of amounts bound (vs GLS3000)” value: 0.32 for the first, 0.3 for the second.

Compared with B23, B24 is lower in “ratio of amounts bound (vs GLS3000)” value: 0.64 for the first, 0.35 for the second.

Going from B25 to B26, the “ratio of amounts bound (vs GLS3000)” value falls from 0.29 to 0.24.

Going from B27 to B28, the “ratio of amounts bound (vs GLS3000)” value falls from 0.59 to 0.21.

Compared with B29, B30 is lower in “ratio of amounts bound (vs GLS3000)” value: 0.59 for the first, 0.34 for the second.

First: B31
Second: B32
The “ratio of amounts bound (vs GLS3000)” value of the first is lower: 0.22 for the first, 2.17 for the second.
